The target in series [1] is T1, BRG1 AT-BRD (human, UniProt P51532 1434-1569). As to the kind of experiment: fluorescence anisotropy; FA and NMR: 50 mM K phosphate pH 7.0, 50 mM KCl, 0.5 mM EDTA, 1 mM DTT (NMR +10% D2O), 20 C (BRG1 NMR 25 C); EMSA: 150 nM DNA/NCP, 10 mM K phosphate, 10 mM KCl, on ice, 0.2x TBE gel. To be noted: protein: recombinant; tags: pDEST15 or pGEX6p1 (GST); label: 5' 6-FAM on strand 1; blunt. Background: In fluorescence polarisation assays a small probe gives low polarisation when free and higher when bound to something large.
T1 sequence (P51532 1434-1569): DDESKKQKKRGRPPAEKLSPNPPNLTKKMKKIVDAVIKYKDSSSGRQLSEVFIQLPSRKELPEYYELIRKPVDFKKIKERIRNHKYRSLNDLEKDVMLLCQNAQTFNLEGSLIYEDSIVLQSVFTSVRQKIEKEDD

For another series, the target named is hBRM-A AT-BRD (human, UniProt P51531 1358-1508). The series is described as follows: NMR titration; 1:1 stoichiometric; FA and NMR: 50 mM K phosphate pH 7.0, 50 mM KCl, 0.5 mM EDTA, 1 mM DTT (NMR +10% D2O), 20 C (BRG1 NMR 25 C); EMSA: 150 nM DNA/NCP, 10 mM K phosphate, 10 mM KCl, on ice, 0.2x TBE gel. To be noted: protein: recombinant; tags: pDEST15 (GST) with PreScission site; blunt.
hBRM-A AT-BRD, sequence (P51531 1358-1508): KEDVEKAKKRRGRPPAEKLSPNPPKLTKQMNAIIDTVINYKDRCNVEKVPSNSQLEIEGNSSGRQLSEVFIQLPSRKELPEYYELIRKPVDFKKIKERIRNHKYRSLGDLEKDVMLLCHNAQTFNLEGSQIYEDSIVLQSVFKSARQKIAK

The target of series [2] is T1, BRG1 AT-BRD. As to the kind of experiment: NMR titration; 25 C; FA and NMR: 50 mM K phosphate pH 7.0, 50 mM KCl, 0.5 mM EDTA, 1 mM DTT (NMR +10% D2O), 20 C (BRG1 NMR 25 C); EMSA: 150 nM DNA/NCP, 10 mM K phosphate, 10 mM KCl, on ice, 0.2x TBE gel. To be noted: protein: recombinant; tags: pDEST15 or pGEX6p1 (GST); blunt. For orientation: A gel shift assay detects complexes by their altered migration in electrophoresis.

B1: DNAII.FA (dsDNA)
DNA 1: CGTAGACAGCTC
DNA 2: GAGCTGTCTACG
With B1, the Kd with BRG1 AT-BRD [1] turned out to be 40 ± 10 µM.

B2: DNAIII (dsDNA)
DNA 1: CCTCAATTGGTCGTAG
DNA 2: CTACGACCAATTGAGG
In the case of B2, in the series with hBRM-A AT-BRD, the binding result is reported as “binds”.

B3: DNAI (dsDNA)
DNA 1: CTCAATTGGT
DNA 2: ACCAATTGAG
Turning to B3, the binding result with BRG1 AT-BRD [2] and with hBRM-A AT-BRD was “binds” each time.

B4: DNAI.FA (dsDNA)
DNA 1: CCTCAATTGGTC
DNA 2: GACCAATTGAGG
Turning to B4, the Kd with BRG1 AT-BRD [1] is 16 ± 2 µM.

B5: DNAII (dsDNA)
DNA 1: CGTAGACAGCT
DNA 2: AGCTGTCTACG
Turning to B5, in the series with BRG1 AT-BRD [2], the binding result is reported as “binds”.

By Kd is commonly meant the constant that tells how readily two partners part at equilibrium.

Source of the values: PMC5519978, “DNA binding drives the association of BRG1/hBRM bromodomains with nucleosomes”.
